Molecular target: pre-pro-human insulin

Protein | Activity PPI cleavage | Selectivity [%]
trypsin variant SEQ ID NO: 30 (protein) IVGGYTCAANSIPYQVSLNSGSHSCGGSLINSQWVVSAAHCYKSRIQVRLGEHNIDVLEGNEQFINAAKIITHPNFNGNTLDNDIMLIKLSSPATLNSRVATVSLPRSCAAAGTECLISGWGNTKSSGSSYPSLLQCLKAPVLSDSSCKSSYPGQITGNMICVGFLEGGKDACQGDSGGPVVCNGQLQGIVSSGYGCAQKNKPGVYTKVCNYVNWIQQTIAAN | yes | >70
trypsin variant SEQ ID NO: 38 (protein) IVGGYTCAANSIPYQVSLNSGSHRCGGSLINSQWVVSAAHCYKSRIQVRLGEHNIDVLEGNEQFINAAKIITHPNFNGNTLDNDIMLIKLSSPATLNSRVATVSLPRSCAAAGTECLISGWGNTKSSGSSCPSLLQCLKAPVLSDSSCKSSYPGQITGNMICVGFLEGGKDACQGDSGGPVVCNGQLQGIVSSGYGCAQKNKPGVYTKVCNYVNWIQQTIAAN | yes | >80
trypsin variant SEQ ID NO: 5 (protein) IVGGYTCAANSIPYQVSLNSGSHRCGGSLINSQWVVSAAHCYKSRIQVRLGEHNIDVLEGNEQFINAAKIITHPNFNGNTLDNDIMLIKLSSPATLNSLVATVSLPRSCAAAGTECLISGWGNTKSSGSSYPSLLQCLKAPVLSDSSCKSSYPGQITGNMICVGFLEGGKDACQGDSGGPVVCNGQLQGIVSSGYGCAQKNKPGVYTKVCNYVNWIQQTIAAN | yes | >90
trypsin variant SEQ ID NO: 31 (protein) IVGGYTCAANSIPYQVSLNSGSHQCGGSLINSQWVVSAAHCYKSRIQVRLGEHNIDVLEGNEQFINAAKIITHPNFNGNTLDNDIMLIKLSSPATLNSRVATVSLPRSCAAAGTECLISGWGNTKSSGSSYPSLLQCLKAPVLSDSSCKSSYPGQITGNMICVGFLEGGKDACQGDSGGPVVCNGQLQGIVSSGYGCAQKNKPGVYTKVCNYVNWIQQTIAAN | yes | >62.1
trypsin variant SEQ ID NO: 40 (protein) IVGGYTCAANSIPYQVSLNSGSHRCGGSLINSQWVVSAAHCYKSRIQVRLGEHNIDVLEGNEQFINAAKIITHPNFNGNTLDNDIMLIKLSSPATLNSRVATVSLPRSCAAAGTECLISGWGNTKSSGSSEPSLLQCLKAPVLSDSSCKSSYPGQITGNMICVGFLEGGKDACQGDSGGPVVCNGQLQGIVSSGYGCAQKNKPGVYTKVCNYVNWIQQTIAAN | yes | >80
trypsin variant SEQ ID NO: 50 (protein) IVGGYTCAANSIPYQVSLNSGSHNCGGSLINSQWVVSAAHCYKSRIQVRLGEHNIDVLEGNEQFINAAKIITHPNFNGNTLDNDIMLIKLSSPATLNSRVATVSLPRSCAAAGTECLISGWGNTKSSGSSYPSLLQCLKAPVLSDSSCKSSYPGQITGNMICVGFLEGGKDACQGDSGGPVVCNGQLQGIVSSGYGCAQKNKPGVYTKVCNYVNWIQQTIAAN | yes | >65
trypsin variant SEQ ID NO: 6 (protein) IVGGYTCAANSIPYQVSLNSGSHRCGGSLINSQWVVSAAHCYKSRIQVRLGEHNIDVLEGNEQFINAAKIITHPNFNGNTLDNDIMLIKLSSPATLNSFVATVSLPRSCAAAGTECLISGWGNTKSSGSSYPSLLQCLKAPVLSDSSCKSSYPGQITGNMICVGFLEGGKDACQGDSGGPVVCNGQLQGIVSSGYGCAQKNKPGVYTKVCNYVNWIQQTIAAN | yes | >90
trypsin variant SEQ ID NO: 44 (protein) IVGGYTCAANSIPYQVSLNSGSHRCGGSLINSQWVVSAAHCYKSRIQVRLGEHNIDVLEGNEQFINAAKIITHPNFNGNTLDNDIMLIKLSSPATLNSRVATVSLPRSCAAAGTECLISGWGNTKSSGSSYPSLLQCLKAPVLSDSSCKSSYPGQITGNMICVGFLEGGKDSCQGDSGGPVVCNGQLQGIVSSGYGCAQKNKPGVYTKVCNYVNWIQQTIAAN | yes | >80
trypsin variant SEQ ID NO: 35 (protein) IVGGYTCAANSIPYQVSLNSGSHRCGGSLINSQWVVSAAHCYKSRIQVRLGEHNIDVLEGNEQFINAAKIITHPNFNGNTLDNDIMLIKLSSPATLNSRVATVSLPRSCAAAGTECLISGWGNTKSSGSSLPSLLQCLKAPVLSDSSCKSSYPGQITGNMICVGFLEGGKDACQGDSGGPVVCNGQLQGIVSSGYGCAQKNKPGVYTKVCNYVNWIQQTIAAN | yes | >90
trypsin variant SEQ ID NO: 34 (protein) IVGGYTCAANSIPYQVSLNSGSHRCGGSLINSQWVVSAAHCYKSRIQVRLGEHNIDVLEGNEQFINAAKIITHPNFNGNTLDNDIMLIKLSSPATLNSRVATVSLPRSCAAAGTECLISGWGNTKSSGSSAPSLLQCLKAPVLSDSSCKSSYPGQITGNMICVGFLEGGKDACQGDSGGPVVCNGQLQGIVSSGYGCAQKNKPGVYTKVCNYVNWIQQTIAAN | yes | >90
trypsin variant SEQ ID NO: 42 (protein) IVGGYTCAANSIPYQVSLNSGSHRCGGSLINSQWVVSAAHCYKSRIQVRLGEHNIDVLEGNEQFINAAKIITHPNFNGNTLDNDIMLIKLSSPATLNSRVATVSLPRSCAAAGTECLISGWGNTKSSGSSYPSLLQCLKAPVLSDSSCKSSYPGQITGNMICVGFLEGGKDACQGDSGGPVVCNGQLQGIVSSGYGCAQKNKPGVYTKVCNYVNWIQQTIAAN | yes | >90
trypsin variant SEQ ID NO: 33 (protein) IVGGYTCAANSIPYQVSLNSGSHRCGGSLINSQWVVSAAHCYKSRIQVRLGEHNIDVLEGNEQFINAAKIITHPNFNGNTLDNDIMLIKLSSPATLNSRVATVSLPTSCAAAGTECLISGWGNTKSSGSSYPSLLQCLKAPVLSDSSCKSSYPGQITGNMICVGFLEGGKDACQGDSGGPVVCNGQLQGIVSSGYGCAQKNKPGVYTKVCNYVNWIQQTIAAN | yes | >90
trypsin variant SEQ ID NO: 48 (protein) IVGGYTCAANSIPYQVSLNSGSHMCGGSLINSQWVVSAAHCYKSRIQVRLGEHNIDVLEGNEQFINAAKIITHPNFNGNTLDNDIMLIKLSSPATLNSRVATVSLPRSCAAAGTECLISGWGNTKSSGSSYPSLLQCLKAPVLSDSSCKSSYPGQITGNMICVGFLEGGKDACQGDSGGPVVCNGQLQGIVSSGYGCAQKNKPGVYTKVCNYVNWIQQTIAAN | yes | >80
trypsin variant SEQ ID NO: 37 (protein) IVGGYTCAANSIPYQVSLNSGSHRCGGSLINSQWVVSAAHCYKSRIQVRLGEHNIDVLEGNEQFINAAKIITHPNFNGNTLDNDIMLIKLSSPATLNSRVATVSLPRSCAAAGTECLISGWGNTKSSGSSTPSLLQCLKAPVLSDSSCKSSYPGQITGNMICVGFLEGGKDACQGDSGGPVVCNGQLQGIVSSGYGCAQKNKPGVYTKVCNYVNWIQQTIAAN | yes | >90
trypsin variant SEQ ID NO: 46 (protein) IVGGYTCAANSIPYQVSLNSGSHACGGSLINSQWVVSAAHCYKSRIQVRLGEHNIDVLEGNEQFINAAKIITHPNFNGNTLDNDIMLIKLSSPATLNSRVATVSLPRSCAAAGTECLISGWGNTKSSGSSYPSLLQCLKAPVLSDSSCKSSYPGQITGNMICVGFLEGGKDACQGDSGGPVVCNGQLQGIVSSGYGCAQKNKPGVYTKVCNYVNWIQQTIAAN | yes | >70
trypsin variant SEQ ID NO: 39 (protein) IVGGYTCAANSIPYQVSLNSGSHRCGGSLINSQWVVSAAHCYKSRIQVRLGEHNIDVLEGNEQFINAAKIITHPNFNGNTLDNDIMLIKLSSPATLNSRVATVSLPRSCAAAGTECLISGWGNTKSSGSSNPSLLQCLKAPVLSDSSCKSSYPGQITGNMICVGFLEGGKDACQGDSGGPVVCNGQLQGIVSSGYGCAQKNKPGVYTKVCNYVNWIQQTIAAN | yes | >90
trypsin variant SEQ ID NO: 49 (protein) IVGGYTCAANSIPYQVSLNSGSHTCGGSLINSQWVVSAAHCYKSRIQVRLGEHNIDVLEGNEQFINAAKIITHPNFNGNTLDNDIMLIKLSSPATLNSRVATVSLPRSCAAAGTECLISGWGNTKSSGSSYPSLLQCLKAPVLSDSSCKSSYPGQITGNMICVGFLEGGKDACQGDSGGPVVCNGQLQGIVSSGYGCAQKNKPGVYTKVCNYVNWIQQTIAAN | yes | >80
trypsin variant SEQ ID NO: 32 (protein) IVGGYTCAANSIPYQVSLNSGSHRCGGSLINSQWVVSAAHCYKSRIQVRLGEHNIDVLEGNEQFINAAKIITHPNFNGNTLDNDIMLIKLSSPATLNSRVATVSLPRSCAAAGTECLISGWGNTKSSGSSYPSLLQCLKAPVLSDSSCKSSYPGQITGNMICVGFLEGGKDACQGDSGGPVVCNGQLQGIVSSGYGCAQKNKPGVYTKVCNYVNWIQQTIAAN | yes | >90
trypsin variant SEQ ID NO: 45 (protein) IVGGYTCAANSIPYQVSLNSGSHRCGGSLINSQWVVSAAHCYKSRIQVRLGEHNIDVLEGNEQFINAAKIITHPNFNGNTLDNDIMLIKLSSPATLNSRVATVSLPRSCAAAGTECLISGWGNTKSSGSSYPSLLQCLKAPVLSDSSCKSSYPGQITGNMICVGFLEGGKDCCQGDSGGPVVCNGQLQGIVSSGYGCAQKNKPGVYTKVCNYVNWIQQTIAAN | yes | >65
trypsin variant SEQ ID NO: 43 (protein) IVGGYTCAANSIPYQVSLNSGSHRCGGSLINSQWVVSAAHCYKSRIQVRLGEHNIDVLEGNEQFINAAKIITHPNFNGNTLDNDIMLIKLSSPATLNSRVATVSLPRSCAAAGTECLISGWGNTKSSGSSYPSLLQCLKAPVLSDSSCKSSYPGQITGNMICVGFLEGGKDTCQGDSGGPVVCNGQLQGIVSSGYGCAQKNKPGVYTKVCNYVNWIQQTIAAN | yes | >80
trypsin variant SEQ ID NO: 47 (protein) IVGGYTCAANSIPYQVSLNSGSHICGGSLINSQWVVSAAHCYKSRIQVRLGEHNIDVLEGNEQFINAAKIITHPNFNGNTLDNDIMLIKLSSPATLNSRVATVSLPRSCAAAGTECLISGWGNTKSSGSSYPSLLQCLKAPVLSDSSCKSSYPGQITGNMICVGFLEGGKDACQGDSGGPVVCNGQLQGIVSSGYGCAQKNKPGVYTKVCNYVNWIQQTIAAN | yes | >90
